Measured values taken from article PMC6325134 (Nature Communications, 2019).

Biological target: T1, HIV-1 envelope glycoprotein Env_(JR-CSF) on intact virions (HIV-1 group M subtype B, isolate JR-CSF, UniProt P20871)
T1 construct: also called JR-CSF Env-WT; JR-CSF virions; source: 293T cells transfected with the Env(-) pCHIV plasmid and the full-length JR-CSF Env clone; on pseudovirions purified by ultracentrifugation through a 20% sucrose cushion
Test: STED microscopy of fluorescent Fab on single virions
Details: one partner purified

Binder	binding result
Fab 10E8 3R conjugated with KK114 (Fab, V domains shown, also called 3R mutant) VH: EVQLVESGGGLVKPGGSLRLSCSASGFDFDNAWMTWVRQPPGKGLEWVGRITGPGEGWSVDYAAPVEGRFTISRLNSINFLYLEMNNLRMEDSGLYFCARTGKYYDFWSGYPPGEEYFQDWGRGTLVTVSS VL: SYELTQETGVSVALGRTVTITCRGDSLRRHYASWYQKKPGQAPILLFYGKRNRPSGVPDRFSGSARGNRASLTISGAQAEDDAEYYCSSRDKSGSRLSVFGGGTKLTVL	binds
Fab 10E8 3R-WG conjugated with KK114 (Fab, V domains shown, also called 3R/WG mutant) VH: EVQLVESGGGLVKPGGSLRLSCSASGFDFDNAWMTWVRQPPGKGLEWVGRITGPGEGWSVDYAAPVEGRFTISRLNSINFLYLEMNNLRMEDSGLYFCARTGKYYDFGSGYPPGEEYFQDWGRGTLVTVSS VL: SYELTQETGVSVALGRTVTITCRGDSLRRHYASWYQKKPGQAPILLFYGKRNRPSGVPDRFSGSARGNRASLTISGAQAEDDAEYYCSSRDKSGSRLSVFGGGTKLTVL	binds
